In test [1] the target is UBR7 (construct of the Co-IP assays). Description: Co-IP (IP: Anti-Flag, blot Anti-HA), band intensity. Particulars: parent: 1.00.
Test [2] shares this target. In words: Co-IP (IP: Anti-Flag), quantified band intensity, bar chart of three replicates. Particulars: parent: est. 1.0; read off a plot.
For test [3], the target named is MBP-tagged UBR7. In words: MBP pull-down (blot Anti-His), band intensity. The following applies: parent: 1.00.
The target of test [4] is MBP-tagged UBR7. Description: MBP pull-down, quantified band intensity, bar chart of three replicates. The following applies: parent: est. 1.0; read off a plot.
For the next test, the target named is UBR7-nLuc. In words: LCI assay (luciferase complementation imaging) in N. benthamiana leaves. The following applies: Luminescence signals were recorded at 48 hpi; parent: est. 1.0; read off a plot.

For AL7-3×Flag S174A, the figures for the ratio to parent in test [1] and in test [2] were 0.55 and 0.6, respectively.
As to AL7-3×Flag S174D, the ratio to parent came out at 1.63 in test [1] and 1.9 in test [2].
His-tagged AL7 S174A: the ratio to parent in the test with MBP-tagged UBR7 [3] worked out at 0.95; with MBP-tagged UBR7 [4] it was 0.72.
As to His-tagged AL7 S174D, the ratio to parent in the test with MBP-tagged UBR7 [3] is 3.18; in the test with MBP-tagged UBR7 [4], 3.1.
On to cLuc-AL7 S174A, for which, in the test with UBR7-nLuc, the ratio to parent turned out to be 0.98.
As to cLuc-AL7 S174D, the ratio to parent in the test with UBR7-nLuc is 1.6.

The values are drawn from PMC12164958.
